The results in this text go back to patent USRE44389.

Experiment [1] addresses Fcγ receptors on monocytes (human blood). Kind of experiment: FACS on human monocytes, antibody 10 µg/ml; negative control.
Experiment [2] shares this target. As to the kind of experiment: FACS on human monocytes, antibody 10 µg/ml.
Experiment [3] has as its target Fcγ receptors on granulocytes (human blood). As to the kind of experiment: FACS on human granulocytes, antibody 10 µg/ml.

With “Human IgG4 (CLB, the Netherlands), negative control (antibody)”, the % monocytes binding antibody in experiment [1] is 9.4%.
Take “HuMab 002 Fc variant IgG4v1 (S228P; L235E) (antibody)”: the % monocytes binding antibody in experiment [2] amounted to 14.5%. The substance also came in with a % granulocytes binding antibody in experiment [3] of 1.6%.
